Molecular target: human EPH receptor A5 (EphA5) expressed on cells (human) (UniProt P54756)
Assay: high-throughput flow cytometry, HEK293T cells expressing wild-type EPHA5 versus vector alone, Fab at 0.50 µg/ml

Chain of human EPH receptor A5 (EphA5) expressed on cells (human) (P54756 25-1037 limits assumed): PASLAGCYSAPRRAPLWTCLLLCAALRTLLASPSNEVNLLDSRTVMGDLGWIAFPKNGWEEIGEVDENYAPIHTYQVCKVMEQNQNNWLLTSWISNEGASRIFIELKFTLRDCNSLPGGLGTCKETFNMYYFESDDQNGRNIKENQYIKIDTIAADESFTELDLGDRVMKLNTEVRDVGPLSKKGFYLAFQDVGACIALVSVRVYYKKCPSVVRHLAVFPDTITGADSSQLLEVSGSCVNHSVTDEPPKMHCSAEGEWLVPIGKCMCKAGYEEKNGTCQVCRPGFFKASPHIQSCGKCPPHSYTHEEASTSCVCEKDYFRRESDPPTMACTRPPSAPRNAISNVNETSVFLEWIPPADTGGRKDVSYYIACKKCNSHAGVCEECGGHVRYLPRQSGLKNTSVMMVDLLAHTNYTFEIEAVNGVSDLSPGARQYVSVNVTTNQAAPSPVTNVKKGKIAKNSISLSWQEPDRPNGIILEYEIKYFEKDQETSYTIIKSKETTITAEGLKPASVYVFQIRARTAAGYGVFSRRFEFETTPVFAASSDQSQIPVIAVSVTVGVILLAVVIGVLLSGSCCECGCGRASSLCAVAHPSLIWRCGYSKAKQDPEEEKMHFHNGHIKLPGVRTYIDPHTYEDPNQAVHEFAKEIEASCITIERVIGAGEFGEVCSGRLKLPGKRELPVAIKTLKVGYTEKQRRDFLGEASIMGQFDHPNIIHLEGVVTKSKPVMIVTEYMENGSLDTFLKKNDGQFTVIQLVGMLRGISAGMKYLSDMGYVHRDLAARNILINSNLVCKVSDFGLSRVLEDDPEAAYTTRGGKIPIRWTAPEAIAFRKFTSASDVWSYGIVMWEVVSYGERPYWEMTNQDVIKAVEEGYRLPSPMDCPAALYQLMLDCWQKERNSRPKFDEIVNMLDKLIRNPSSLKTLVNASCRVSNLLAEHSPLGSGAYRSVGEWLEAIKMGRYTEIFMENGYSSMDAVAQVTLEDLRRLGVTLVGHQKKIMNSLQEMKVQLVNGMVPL

| Signal:Background | Binder |
| --- | --- |
| 70 | Fab derived from the H5K3 antibody (Fab, part only; not given: CH1 and upper hinge limits, V domains shown, not shown: another chain or arm of the molecule; a dimerising Fc or GST) VH: EVQLVESGGGLVQPGGSLKLSCAASGFTFSTFGIHWVRQAPGKGLEWVAYISGASTTIYYADSVKGRFTISRDNSKNTLYLQMNSLRAEDTAVYYCARYGTSFPYGLDYWGQGTLVTVSS VL: DIVMTQSPDSLAVSLGERATINCKASQSVDYDGDSYMNWYQQKPGKAPKLLIYGASNLESGIPDRFSGSGSGTDFTLTISRLEPEDAAVYYCQQSNEDPFTFGQGTKLEIK |
| 66 | Fab derived from the H4K3 antibody (Fab, part only; not given: CH1 and upper hinge limits, V domains shown, not shown: another chain or arm of the molecule; a dimerising Fc or GST) VH: EVQLVESGGGLVQPGGSLKLSCAASGFTFSTFGIHWVRQAPGKGLEWVAYISGASTTIYYADTVKGRFTISRDNSKNTLYLQMNSLRAEDTAVYYCARYGTSFPYGLDYWGQGTLVTVSS VL: DIVMTQSPDSLAVSLGERATINCKASQSVDYDGDSYMNWYQQKPGKAPKLLIYGASNLESGIPDRFSGSGSGTDFTLTISRLEPEDAAVYYCQQSNEDPFTFGQGTKLEIK |

Source: patent US20240115722A1
